Consider four molecules from PMC3642871 (Biochemistry, 2008).

B1: ΔC10 huMIF(1-104) (domain or fragment, human, UniProt P14174 2-105, looked up)
chain: PMFIVNTNVPRASVPDGFLSELTQQLAQATGKPPQYIAVHVVPDQLMAFGGSSEPCALCSLHSIGKIGGAQNRSYSKLLCGLLAERLRISPDRVYINYYDMNAA
B2: Recombinant, soluble huMIF receptor ectodomain (sCD74 73-232) (domain or fragment, UniProt P04233-2 73-232, looked up)
chain: QQQGRLDKLTVTSQNLQLENLRMKLPKPPKPVSKMRMATPLLMQALPMGALPQGPMQNATKYGNMTEDHVMHLLQNADPLKVYPPLKGSFPENLRHLKNTMETIDWKVFESWMHHWLLFEMSRHSLEQKPTDAPPKESLELEDPSSGLGVTKQDLGPVPM
B3: ΔC5 huMIF(1-109) (domain or fragment, human, UniProt P14174 2-110, looked up)
chain: PMFIVNTNVPRASVPDGFLSELTQQLAQATGKPPQYIAVHVVPDQLMAFGGSSEPCALCSLHSIGKIGGAQNRSYSKLLCGLLAERLRISPDRVYINYYDMNAANVGWN
B4: P107 huMIF (natural protein, human, UniProt P14174 2-115, looked up)
chain: PMFIVNTNVPRASVPDGFLSELTQQLAQATGKPPQYIAVHVVPDQLMAFGGSSEPCALCSLHSIGKIGGAQNRSYSKLLCGLLAERLRISPDRVYINYYDMNAANVPGWNNSTFA

Series [1] concerns the target B2. Description: ELISA.
Series [2] deals with the molecule itself. Kind of series: AUC.
For series [3], the target named is Biotinylated huMIF (human, UniProt P14174 2-115, biotin (sites not given)). Description: ELISA.

Consider B1, for which the binding result in series [1] is listed as “binds”. The “stoichiometry N” value in series [2] was determined as 3.

Take B2: the binding result in series [3] is given as “binds”. For B3, the binding result in series [1] is reported as “binds”. Moreover, the “stoichiometry N” value in series [2] amounted to 3. On to B4, for which the “stoichiometry N” value in series [2] came to 3.
